Test results published in US20110217237A1 (AbbVie / Abbott, published 2011).
Where two headings read alike, the source gives them in different places.

B1: 1A11 rat anti-DLL4 monoclonal antibody (antibody, rat IgG1, V domains shown)
VH: EVQLVESGGGLVQPGRSMKLSCAASGFTFRNFPMAWVRQAPTRGLEWVATISSSDGTTYYRDSVKGRFTISRDNAKSTLYLQVNSLRSEDTATYYCSRGYYNSPFAYWGQGTLVTVSS
VL: DIQMTQSPASLSASLGETVTIECRASEDIYSNLAWYQQKPGNSPQLLIFDTNNLADGVPSRFSGSGSGTQSSLKINSLQSEDVASYFCQQYNNYPPTFGGGTKLELKR
notes: rat IgG1/K hybridoma mAb; also called MC13-1A11.2E1; 1A11 (rat mAb)
B2: 38H12 rat anti-DLL4 monoclonal antibody (antibody, rat IgG2a, V domains shown)
VH: EVQLVESGGGLVQPGRSLKLSCAASGFTFSNYGMYWIRQAPTKGLQWVAFISHGGGITYYRDSVKGRFTISRDNAKSTLYLQMDSLRSEDTATYHCAALNWELGIDYWGQGVMVTVSS
VL: DIQMTQSPASLSASLGETISIECRASEDIYSNLAWYQKKSGKSPQLLIYAANRLQDGVPSRFSGSGSGTQYSLKISGMQPEDEGDYFCLQGSKFPLTFGSGTKLEIKR
notes: rat IgG2a/k hybridoma mAb; also called MC10-38H12.2G8; 38H12 rat mAb

Experiments:
[1] = target: T1, cynomolgus monkey DLL4 extracellular domain (cynomolgus monkey); experiment: SPR (Biacore)
T1 construct: extracellular domain; also called cynoDLL4 ECD; Cyno DLL4
Method: (§1) The BIACORE® surface plasmon resonance assay (Biacore, Inc., Piscataway, N.J., US) determines the affinity of antibodies with kinetic measurements of on-rate and off-rate constants. Binding of DLL4 antibodies to a purified recombinant DLL4 extracellular domain (ECD) was determined by surface plasmon resonance-based measurements with a Biacore® instrument (either a Biacore 2000, Biacore 3000, or Biacore T100; GE Healthcare, Piscataway, N.J., US) using running buffer HBS-EPB (10 mM HEPES [pH 7.4], 150 mM NaCl, 3 mM EDTA, 0.1 mg/ml BSA and 0.005% surfactant P20) at 25° C. For example, approximately 9000 RU of goat anti-human Fc specific polyclonal antibody (Thermo Fisher Scientific Inc., Rockford, Ill., US) diluted in 10 mM sodium acetate (pH 4.5) is directly immobilized across a CMS research grade biosensor chip using a standard amine coupling kit according to manufacturer's instructions and procedures at 25 μg/ml. Unreacted moieties on the biosensor surface were blocked with ethanolamine. For kinetic analysis, rate equations derived from the 1:1 Langmuir binding model were fitted simultaneously to multiple antigen injections (using global fit analysis) with the use of Scrubber 2 (BioLogic Software), Biacore Biaevaluation 4.0.1 software or Biacore T100 Evaluation software. Purified antibodies were diluted in running buffer for capture across goat anti-human Fc reaction surfaces. Antibodies to be captured as a ligand (1 μg/ml) were injected over reaction matrices at a flow rate of 10 μl/min. During the assay, all measurements were referenced against the capture surface alone (i.e., with no captured anti-DLL4 antibody). […] The equilibrium dissociation constant KD (M) of the reaction between antibodies and the target antigen was then calculated from the kinetic rate constants by the following formula: KD=Koff/Kₒₙ. Binding was recorded as a function of time and kinetic rate constants were calculated.

[2] = target: T2, human DLL4 extracellular domain (human, UniProt Q9NR61 27-529); experiment: SPR (Biacore)
T2 construct: purified recombinant ECD; biotin-labelled or 6xHis-tagged depending on the assay; also called huDLL4 ECD; hu DLL4 ECD
Method: as §1

[3] = target: T3, mouse DLL4 extracellular domain (mouse, UniProt Q9JI71 27-532); experiment: competition ELISA: biotin-DLL4 ECD to coated huNotch-1
T3 construct: extracellular domain; also called muDLL4 ECD; murine DLL4
Method: (§2) Plates were then washed 3 times with wash buffer (PBS, 0.05% Tween-20) and blocked with 200 μl/well blocking buffer (D-PBS, 1% BSA, 1 mM CaCl₂, 0.05% Tween-20) for 1 hour at 25° C. While blocking, biotin labeled DLL4 extracellular domain (14 nM) was mixed with antibody (30 pM-66 nM, 3-fold serial dilution in blocking buffer) for 1 hour at 25° C. with shaking. Assay plates were washed after blocking, and incubated with DLL4/antibody mixtures (100 μl/well, 1 hour at 25° C. with shaking). Plates were washed again and 100 μl/well streptavidin conjugated with HRP (Fitzgerald #65R-S104PHRPx, diluted 1:5,000 in blocking buffer) was added for 1 hour at 25° C. with shaking. After a final wash, plates were developed using 100 μl/well substrate (TMB Sigma #T8665), and the reaction was stopped using 100 μl/well 1N HCl, and the absorbance was read at 450 nm. Data were analyzed using Graphpad Prism software and IC₅₀ values were reported as the concentration of antibody to achieve 50% reduction of DLL4 bound to Notch1.
(§3) Further characterization determined 37D10 and 40B10 were identical rat mAbs.

[4] = target: T2, human DLL4 extracellular domain; experiment: as above
Method: as §2, §3

[5] = target: T4, human DLL4, full length, on cells (human, UniProt Q9NR61 27-685); experiment: cell-based or functional assay
[6] = target: T5, rat DLL4 extracellular domain (rat, UniProt D3ZHH1 28-530); experiment: SPR (Biacore)
T5 construct: extracellular domain; also called ratDLL4 ECD
In short: (§4)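 Purified anti-DLL4 antibodies (1 μg/ml) captured on immobilized goat anti-human Fc, with DLL4 ECD injected as analyte; HBS-EPB running buffer (pH 7.4), 25° C, referenced against capture-only surface. On/off rates from global 1:1 Langmuir fit; KD = Koff/Kon.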

[7] = target: T3, mouse DLL4 extracellular domain; experiment: SPR (Biacore)
In short: as §4

[8] = target: T2, human DLL4 extracellular domain; experiment: SPR (Biacore); remark: listed apart in the source
[9] = target: T3, mouse DLL4 extracellular domain; experiment: binding ELISA, DLL4 ECD
[10] = target: T2, human DLL4 extracellular domain; experiment: binding ELISA, DLL4 ECD
mouse DLL4 on cells [11] = target: T6, mouse DLL4 on cells (mouse, UniProt Q9JI71 27-686); experiment: FACS, DLL4 cells
T6 construct: whole, on cells; also called mouse DLL4-293G; mu DLL4 cells
Method: (§5) Stable cell lines overexpressing cell-surface DLL4 were harvested from tissue culture flasks, washed four times and resuspended in phosphate buffered saline (PBS) containing 1% bovine serum albumin and 1 mM CaCl₂ (FACS buffer). 1.5×10⁵ cells were incubated with antibodies at various concentrations in FACS buffer for 60 minutes on ice. […] Following an incubation on ice (4° C., 60 minutes), cells were washed three times and resuspended in FACS buffer. Fluorescence was measured using a Becton Dickinson FACSCalibur-HTS (Becton Dickinson, San Jose, Calif., US). Data were analyzed using Graphpad Prism software and EC₅₀ values were reported as the concentration of antibody to achieve 50% of maximal DLL4 antibodies binding to DLL4 expressing cells. […]

[12] = target: T4, human DLL4, full length, on cells; experiment: FACS, DLL4 cells
Method: as §5

mouse DLL4 on cells [13] = target: T6, mouse DLL4 on cells; experiment: competition FACS: huNotch-1-biotin to DLL4 cells
Method: (§6) Notch blocking assay: Briefly, stable cell lines overexpressing cell-surface DLL4 were harvested from tissue culture flasks and re-suspended in phosphate buffered saline (PBS) containing 1% bovine serum albumin and 1 mM CaCl₂ (FACS buffer). HEK293G-DLL4 cells were dispensed into 96-well plate (v-bottom) at 1.5×10⁵ cells/well in FACS buffer. After spinning down cells and discarding the supernatant, 50 μL of purified IgG with appropriate dilution were added to each well, and incubated on ice at 4° C. for 60 minutes, followed by addition of 50 μL/well of Notch1-biotin at 0.2 μg/mL for human DLL4-293G or 2.0 μg/mL for mouse DLL4-293G (1.0 or 0.1 μg/mL final) for an additional 1 hour incubation ice at 4° C. After washing the cells two times with FACS buffer, 50 μL of R-phycoerythrin-conjugated streptavidin (1:150 dilution in FACS buffer) (Jackson ImmunoResearch, West Grove, Pa., Cat.#016-110-084) were added. Following an incubation on ice (4° C., 60 minutes), cells were washed three times and resuspended in FACS buffer. Fluorescence was measured using a Becton Dickinson FACSCalibur-HTS (Becton Dickinson, San Jose, Calif.). Data were analyzed using Graphpad Prism software, and IC₅₀ values were reported as the concentration of antibody to achieve 50% reduction of Notch1 bound to DLL4 expressing cells. […]

[14] = target: T4, human DLL4, full length, on cells; experiment: competition FACS: huNotch-1-biotin to DLL4 cells
Method: as §6

[15] = target: T3, mouse DLL4 extracellular domain; experiment: competition ELISA vs Notch-1
[16] = target: T2, human DLL4 extracellular domain; experiment: competition ELISA vs Notch-1
mouse DLL4 on cells [17] = target: T6, mouse DLL4 on cells; experiment: FACS on cells expressing mouse DLL4

T3 sequence (Q9JI71 27-532): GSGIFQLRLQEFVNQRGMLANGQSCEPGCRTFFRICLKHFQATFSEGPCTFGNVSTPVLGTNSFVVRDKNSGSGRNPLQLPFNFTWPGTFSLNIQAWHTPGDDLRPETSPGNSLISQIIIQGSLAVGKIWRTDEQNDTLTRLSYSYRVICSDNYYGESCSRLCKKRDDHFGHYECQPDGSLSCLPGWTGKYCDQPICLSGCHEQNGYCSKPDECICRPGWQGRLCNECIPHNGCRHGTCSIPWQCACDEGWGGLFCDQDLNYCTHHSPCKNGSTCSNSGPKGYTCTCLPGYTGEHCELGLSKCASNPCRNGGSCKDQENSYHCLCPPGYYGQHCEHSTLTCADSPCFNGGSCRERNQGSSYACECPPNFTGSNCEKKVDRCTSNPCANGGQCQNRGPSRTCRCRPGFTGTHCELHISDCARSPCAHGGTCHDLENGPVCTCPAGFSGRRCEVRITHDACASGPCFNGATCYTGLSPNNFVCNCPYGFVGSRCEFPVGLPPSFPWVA
T4 sequence (Q9NR61 27-685 limits assumed): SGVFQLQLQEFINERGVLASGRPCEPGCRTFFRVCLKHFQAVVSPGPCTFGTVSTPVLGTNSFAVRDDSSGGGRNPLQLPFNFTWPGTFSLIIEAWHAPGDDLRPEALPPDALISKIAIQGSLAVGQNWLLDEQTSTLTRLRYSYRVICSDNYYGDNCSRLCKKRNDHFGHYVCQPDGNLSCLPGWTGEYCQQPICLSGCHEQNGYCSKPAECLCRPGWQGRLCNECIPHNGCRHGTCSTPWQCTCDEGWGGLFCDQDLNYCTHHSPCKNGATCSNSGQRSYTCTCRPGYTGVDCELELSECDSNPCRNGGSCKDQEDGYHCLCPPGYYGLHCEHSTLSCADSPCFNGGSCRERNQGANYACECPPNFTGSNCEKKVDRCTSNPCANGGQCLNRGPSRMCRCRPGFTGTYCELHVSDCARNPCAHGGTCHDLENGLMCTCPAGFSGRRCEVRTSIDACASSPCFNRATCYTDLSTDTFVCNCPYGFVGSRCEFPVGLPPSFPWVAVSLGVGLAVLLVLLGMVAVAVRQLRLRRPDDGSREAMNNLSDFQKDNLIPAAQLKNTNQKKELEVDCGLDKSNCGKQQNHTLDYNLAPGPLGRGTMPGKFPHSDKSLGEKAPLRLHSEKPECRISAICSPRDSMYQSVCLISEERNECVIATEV
T2 sequence (Q9NR61 27-529 limits assumed): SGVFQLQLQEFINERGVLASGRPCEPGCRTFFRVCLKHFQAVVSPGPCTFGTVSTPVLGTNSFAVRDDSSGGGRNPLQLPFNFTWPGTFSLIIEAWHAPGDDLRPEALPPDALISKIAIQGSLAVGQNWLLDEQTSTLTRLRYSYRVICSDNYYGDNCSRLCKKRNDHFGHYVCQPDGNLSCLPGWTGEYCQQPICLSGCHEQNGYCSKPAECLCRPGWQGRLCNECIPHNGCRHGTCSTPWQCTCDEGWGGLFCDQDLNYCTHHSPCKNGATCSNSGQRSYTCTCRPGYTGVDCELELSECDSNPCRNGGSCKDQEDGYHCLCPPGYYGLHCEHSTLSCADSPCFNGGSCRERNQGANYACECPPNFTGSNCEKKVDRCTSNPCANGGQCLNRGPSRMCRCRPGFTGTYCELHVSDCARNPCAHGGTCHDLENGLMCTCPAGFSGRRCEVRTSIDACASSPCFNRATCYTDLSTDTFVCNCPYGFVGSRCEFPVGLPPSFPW
T6 sequence (Q9JI71 27-686): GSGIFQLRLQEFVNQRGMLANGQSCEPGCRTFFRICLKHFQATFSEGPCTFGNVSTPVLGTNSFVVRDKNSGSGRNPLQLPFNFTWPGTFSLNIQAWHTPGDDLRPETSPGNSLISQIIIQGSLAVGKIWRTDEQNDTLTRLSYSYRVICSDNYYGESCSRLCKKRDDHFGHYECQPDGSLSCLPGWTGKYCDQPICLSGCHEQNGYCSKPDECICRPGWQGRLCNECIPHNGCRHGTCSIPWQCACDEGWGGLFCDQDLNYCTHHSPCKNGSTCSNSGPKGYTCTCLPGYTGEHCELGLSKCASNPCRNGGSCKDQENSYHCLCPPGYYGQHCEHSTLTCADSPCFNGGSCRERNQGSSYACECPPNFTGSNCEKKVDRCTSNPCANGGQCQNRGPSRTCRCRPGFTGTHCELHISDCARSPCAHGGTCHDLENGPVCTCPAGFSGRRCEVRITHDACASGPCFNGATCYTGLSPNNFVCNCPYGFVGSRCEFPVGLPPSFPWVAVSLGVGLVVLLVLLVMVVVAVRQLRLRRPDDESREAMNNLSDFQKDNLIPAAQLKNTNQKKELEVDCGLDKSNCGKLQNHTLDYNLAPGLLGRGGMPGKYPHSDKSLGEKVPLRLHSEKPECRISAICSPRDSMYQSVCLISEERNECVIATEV
T5 sequence (D3ZHH1 28-530): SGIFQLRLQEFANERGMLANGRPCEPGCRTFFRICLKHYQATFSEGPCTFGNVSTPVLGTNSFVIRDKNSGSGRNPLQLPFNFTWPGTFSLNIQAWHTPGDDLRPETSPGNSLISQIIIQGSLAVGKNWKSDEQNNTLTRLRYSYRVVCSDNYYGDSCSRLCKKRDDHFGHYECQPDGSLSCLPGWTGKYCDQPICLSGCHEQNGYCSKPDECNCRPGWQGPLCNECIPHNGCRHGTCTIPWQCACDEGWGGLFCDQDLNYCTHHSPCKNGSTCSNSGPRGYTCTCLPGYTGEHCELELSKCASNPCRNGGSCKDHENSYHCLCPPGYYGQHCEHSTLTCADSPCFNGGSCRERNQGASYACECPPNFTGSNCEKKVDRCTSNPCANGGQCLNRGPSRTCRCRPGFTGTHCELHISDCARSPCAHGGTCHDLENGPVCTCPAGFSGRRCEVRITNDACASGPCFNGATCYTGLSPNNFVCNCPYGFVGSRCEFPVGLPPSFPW

Row | Binder | Kd [1] | koff [1] | kon [1] | Kd [2] | koff [2] | kon [2] | IC50 [4] | Notch activation Inhibition (IC50, nM), huDLL4 cell/Notch reporter cells [5] | binding result [6] | EC50 [10] | EC50 [12] | IC50 [14] | further results
1 | B1 | 8.1 nM | 0.00093 s⁻¹ | 110000 M⁻¹ s⁻¹ | 5.8 nM | 0.0011 s⁻¹ | 190000 M⁻¹ s⁻¹ | 0.78 nM | 2.9 nM | no binding | 0.06 nM | 34.8 nM | 8.4 nM | IC50 [3]: 0.79 nM; Kd [7]: 23 nM; koff [7]: 0.0029 s⁻¹; kon [7]: 130000 M⁻¹ s⁻¹; Kd [8]: 6 nM; EC50 [9]: 0.11 nM; EC50 (mouse DLL4 on cells [11]): 0.8 nM; IC50 (mouse DLL4 on cells [13]): 0.8 nM; IC50 [15]: 1.1 nM; IC50 [16]: 0.5 nM
2 | B2 | 0.4 nM | 9.8e-05 s⁻¹ | 260000 M⁻¹ s⁻¹ | 0.3 nM | 0.00011 s⁻¹ | 400000 M⁻¹ s⁻¹ | 3.63 nM | 0.5 nM | no binding | 0.06 nM | 1.2 nM | 1.7 nM | binding result [9]: no binding; binding result (mouse DLL4 on cells [17]): no binding
